In patent publication US20230348578A1, “CONFORMATION-SPECIFIC ANTIBODIES THAT BIND TAU PROTEIN AND USES THEREOF” (Beth Israel Deaconess Medical Center, Inc., priority 2020, published 2023):
Changes are numbered by the printed parent chain. One block for each molecule: values may come before it.

Columns and labels:
[1] = system: mice (C57/BL6) after 3-hit repetitive TBI; experiment: 3-hit repetitive mild TBI in mice, elevated plus maze; format: in vivo; settings: risk-taking behavior, HT13 chimera control = 1.0
Protocol: (§1) The binding affinity of selected humanized antibody clones was determined by Biacore assay using a wild-type P-tau peptide and its pure cis or cis-locked, and pure trans counterparts. The […] of the selected humanized cis mAb variants was determined by assessing their ability to eliminate cis P-tau in stressed neurons in cell cultures. Functional restoration of selected clones was determined by their ability to restore risk-taking behavior after 3-hit or 7-hit repetitive TBI in mice, as assayed by elevated plus maze.
(§2) An initial sign of brain dysfunction following traumatic brain injury (TBI) is an increase in risk-taking behavior. To determine the therapeutic effect of the herein described cis pT231-tau monoclonal antibodies in restoring brain function 11-week old mice (C57/BL6) mice were subjected to elevated plus maze behavioral assays designed to evaluate risk-taking behavior following repetitive mild TBIs. The behavioral assays were performed as previously described in Walf, Nature Protocols 2(2): 322-328, 2007 (FIG. 7). […] All other mice sustained mild TBI (rmTB) either three times, once a day for three consecutive days, or seven times once a day for five consecutive days and two consecutive times on days 8 and 9. In the 3-hit TBI experiment (FIG. 8A), nine groups of mice received three doses (250 ug/mouse) via intraperitoneal injection of either IgG control (n=10 mice) or one of the following humanized cis pT231-tau monoclonal antibody variants C113 (n=5 mice), HT1 (n=10 mice), HT2 (n=10), HT3 (n=10), HT8 (n=5), HT10 (n=10), HT13 (n=15), HT18 (n=4). Treatment with IgG or humanized cis-pT231-tau monoclonal antibody was administered on Days 1, 2 and 7. Behavioral evaluation was performed on Day 13. In the 7-hit TBI experiment (FIG. 8B), one group sustained TBI only (n=10 mice). The other groups received 8 doses (250 ug/mouse) via intraperitoneal injection of either IgG control (n=10 mice) or one of the following humanized cis pT231-tau monoclonal antibody variants C113 (n=10 mice), HT2 (n=10), HT3 (n=10), HT8 (n=10), HT10 (n=10), HT13 (n=10), HT18/HC2 (n=10). Treatment with IgG or humanized cis-pT231-tau monoclonal antibody was administered on Days 1, 2, 3, 5, 8, 10, 13 and 20. Behavioral evaluation was performed on Day 27. The elevated plus maze was used to assess anxiety/risk-taking behavior and carried out as described in Kondo et al, Nature 523, 431-436, 2015. Briefly, the elevated plus maze consists of two white open arms (30×5 cm) and two white closed arms of the same size with 15-cm-high walls, extended out opposite from each other from a central platform (decision zone) to create a plus shape. The entire apparatus is raised 38 cm above the floor (Lafayette Instruments). Mice are placed on the center platform of the maze, facing a closed arm, and allowed to explore the apparatus for 5 min. The maze is cleaned between subjects with a weak ethanol solution and dried. A computer-assisted video tracking system (Noldus Ethovision) recorded the total time spent in the center platform (decision zone), and the two closed or ‘safe’ arms and the two open or ‘aversive’ arms. Mice with lower levels of anxiety/risk-taking behavior spend less time in the open arms.

cis P-tau [2] = molecular target: T1, cis P-tau (Homo sapiens, UniProt P10636); experiment: Elimination of cis P-tau in cultured neurons stressed by hypoxia; format: cell-based; design: endogenous in cells; settings: 2.5 μg/ml, 5 μg/ml and 10 μg/ml
T1 sequence (P10636 1-441 isoform P10636-8): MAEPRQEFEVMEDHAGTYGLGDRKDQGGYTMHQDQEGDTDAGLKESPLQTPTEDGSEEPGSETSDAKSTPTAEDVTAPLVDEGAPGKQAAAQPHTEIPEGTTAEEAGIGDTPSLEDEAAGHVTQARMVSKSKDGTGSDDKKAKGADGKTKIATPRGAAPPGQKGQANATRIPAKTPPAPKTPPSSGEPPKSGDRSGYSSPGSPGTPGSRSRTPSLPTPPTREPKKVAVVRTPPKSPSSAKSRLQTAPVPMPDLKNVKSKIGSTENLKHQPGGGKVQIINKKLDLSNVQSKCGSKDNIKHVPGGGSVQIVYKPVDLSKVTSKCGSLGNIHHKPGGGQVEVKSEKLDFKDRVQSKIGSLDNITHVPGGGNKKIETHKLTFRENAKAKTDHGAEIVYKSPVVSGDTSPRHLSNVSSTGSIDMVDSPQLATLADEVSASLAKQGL
Protocol: as §1
Cultured neurons were subjected to neuron stress by hypoxia in the presence or absence of different concentration of humanized antibody variants, followed by immunoblotting analysis to analyze cis P-tau levels in the stressed neurons, the results of which are provided in FIGS. 2-4. FIG. 2 is an immunostaining image showing the ability of humanized cis pT231-tau monoclonal antibody variants to eliminate cis P-tau in neurons under hypoxic conditions. Cis P-tau levels are reported in red and blue reports nuclear staining (Hoechst) to represent all neurons in the experiment. […] Cis P-tau levels are reported in red and blue reports nuclear staining (Hoechst) to represent all neurons in the experiment. […] IgG is a negative control. The cis-pTau monoclonal antibody C113 serves as a positive control.

[3] = molecular target: cis pT231-tau (P-tau peptide, pure cis or cis-locked); experiment: Biacore assay of binding affinity of humanized cis mAb variants
From the text: We next started to characterize and select lead humanized mAbs. We expressed and purified humanized mAb variants using a CHO expression system. We transfected over 45 plasmid DNA pairs of heavy and light chain cDNAs into CHO cells to express over 225 humanized cis mAb variants in various combinations. To evaluate the target binding specificity and affinity of our mouse mAbs, we established a simple and quantitative ELISA to screen the clones using a wild-type P-tau peptide and its pure cis or cis-locked, and pure trans counterparts and determined the binding affinity for selected clones using Biacore assays. We screened over 200 humanized cis mAb variants. […] Furthermore, one-tenth of humanized cis mAb variants were also able to recognize cis P-tau in human AD and TBI brains based on immunostaining analysis.
as §1

[4] = system: mice (C57/BL6) after 7-hit repetitive TBI; experiment: 7-hit repetitive mild TBI in mice, elevated plus maze; format: in vivo; settings: risk-taking behavior, HT13 chimera control = 1.0
Protocol: as §1, §2

cis P-tau [5] = molecular target: T1, cis P-tau; experiment: Immunoblotting of CSF of live TBI patients; format: binding; design: The recognition of cis P-tau in the CSF of live TBI patients; from tissue; host or cells: cerebrospinal fluid of live traumatic brain injury patients; settings: relative to control CSF samples
From the text: CSF pT231-tau is an early biomarker of traumatic brain injury (TBI). The recognition of cis P-tau in the CSF of live TBI patients by the humanized cis pT231-tau monoclonal antibody variants evaluated immunoblotting analyses using different humanized antibody variants.

elimination of cis P-tau in neurons under hypoxic conditions (images) (cis P-tau [2]): elimination of cis P-tau
Kd [3]: 1.83 nM
B1: HT1: humanized cis-pThr231-tau mAb; heavy chain variable domain SEQ ID NO: 25, light chain variable domain SEQ ID NO: 16 (antibody, V domains shown)
VH: QVQLVQSGAELKKPGASVKMSCKASGYTFTSYWIHWVKQRPGQGLEWIGVIDPSDSYTRYNQKFKGRATLTVDTSASTAYMQLSSLTSEDSAVYYCTTWEVDYWGQGTTVTVSS
VL: DVVMTQSPLSLPVTLGQPASISCRSSQSLVHSDGNTYLHWYLQKPGQSPQLLIYKVSNRFSGVPDRFSGSGSGTDFTLKISRVEAEDVGVYFCSQSTHVPWTFGGGTKVEIK
Functional restoration 3-hit TBI [1]: 1.5

elimination of cis P-tau in neurons under hypoxic conditions (images) (cis P-tau [2]): elimination of cis P-tau
rank in cis P-tau elimination assay (FIG. 4) (cis P-tau [2]): top four performing variants
Kd [3]: 1.62 nM
B2: HT2: humanized cis-pThr231-tau mAb; heavy chain variable domain SEQ ID NO: 26, light chain variable domain SEQ ID NO: 16 (antibody, V domains shown)
VH: B1 VH with L11V, Q82E, T87R, S91T, T109L
VL: B1 VL
Functional restoration 7-hit TBI [4]: 1.7
Functional restoration 3-hit TBI [1]: 1.4

elimination of cis P-tau in neurons under hypoxic conditions (images) (cis P-tau [2]): elimination of cis P-tau
rank in cis P-tau elimination assay (FIG. 4) (cis P-tau [2]): top four performing variants
Kd [3]: 7.68 nM
B3: HT8: humanized cis-pThr231-tau mAb; heavy chain variable domain SEQ ID NO: 28, light chain variable domain SEQ ID NO: 18 (antibody, V domains shown)
VH: B1 VH with L11V, M20V, K38R, A68V, L70I, V72R, Q82E, T87R, S91T, T109L
VL: B1 VL with F60D
Functional restoration 7-hit TBI [4]: 1.4
detection of cis P-tau in CSF of live TBI patients (cis P-tau [5]): robust detection of cis P-tau as early as three days after TBI

elimination of cis P-tau in neurons under hypoxic conditions (images) (cis P-tau [2]): elimination of cis P-tau
Kd [3]: 3.51 nM
B4: HT3: humanized cis-pThr231-tau mAb; heavy chain variable domain SEQ ID NO: 27, light chain variable domain SEQ ID NO: 16 (antibody, V domains shown)
VH: B1 VH with L11V, M20V, K38R, A68V, Q82E, T87R, S91T, T109L
VL: B1 VL
Functional restoration 7-hit TBI [4]: 2.0
Functional restoration 3-hit TBI [1]: 1.7
